Consider 26 substances from US20220177587A1, “METHODS AND USES OF VARIANT CD80 FUSION PROTEINS AND RELATED CONSTRUCTS” (Alpine Immune Sciences, Inc., priority 2018, published 2022).

The target of assay [1] is PD-L1 (human) (UniProt Q9NZQ7). The assay is described as follows: flow cytometry, CHO cells stably expressing PD-L1. On the technique in general: Flow cytometry measures light scatter and fluorescence of single cells or particles in a stream.
Assay [2] has as its target human CTLA-4 (human) (UniProt P16410). The experiment in a line: flow cytometry, CHO cells stably expressing CTLA4.
For assay [3], the target named is CD28 (human) (UniProt P10747). The assay is described as follows: flow cytometry, Jurkat cells (CD28).
Assay [4] addresses human CTLA-4 (human) (UniProt P16410). The assay is described as follows: flow cytometry, CHO cells expressing huCTLA-4.
Assay [5] has as its target PD-L1 (human) (UniProt Q9NZQ7). The experiment in a line: flow cytometry, CHO cells expressing huPD-L1.
Target sequence in this assay (Q9NZQ7 19-290): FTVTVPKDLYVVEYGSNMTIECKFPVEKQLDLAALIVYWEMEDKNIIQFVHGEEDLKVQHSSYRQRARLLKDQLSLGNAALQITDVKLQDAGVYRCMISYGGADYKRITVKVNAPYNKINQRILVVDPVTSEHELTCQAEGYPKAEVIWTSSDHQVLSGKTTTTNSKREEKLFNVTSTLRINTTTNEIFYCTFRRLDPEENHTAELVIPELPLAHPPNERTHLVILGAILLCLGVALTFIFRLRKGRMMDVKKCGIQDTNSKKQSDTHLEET
The target in assay [6] is CD28 (human) (UniProt P10747). The experiment in a line: flow cytometry, Jurkat/IL2 reporter cells (CD28).

wild-type CD80 IgV-Fc (inert), as in Example 12 (Fc fusion), sequence (chain): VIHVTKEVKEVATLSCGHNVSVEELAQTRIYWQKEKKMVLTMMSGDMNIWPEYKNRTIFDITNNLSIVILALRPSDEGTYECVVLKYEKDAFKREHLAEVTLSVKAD
human CTLA-4 (human), sequence (P16410 36-223): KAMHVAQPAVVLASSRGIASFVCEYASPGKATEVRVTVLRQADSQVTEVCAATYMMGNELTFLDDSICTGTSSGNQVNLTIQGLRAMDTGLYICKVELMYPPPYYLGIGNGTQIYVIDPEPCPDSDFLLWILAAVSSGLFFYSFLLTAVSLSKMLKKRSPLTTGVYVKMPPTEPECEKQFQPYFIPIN
wild-type CD80 IgV (SEQ ID NO: 150)-Fc (inert) with GSG4S linker (Fc fusion), sequence (chain): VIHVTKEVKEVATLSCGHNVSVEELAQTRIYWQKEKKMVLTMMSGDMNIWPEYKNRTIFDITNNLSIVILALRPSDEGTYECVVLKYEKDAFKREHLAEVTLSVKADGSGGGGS

As for “variant CD80 IgV-Fc (inert) H18L/E35D/M47V/V68M/A71G/D90G (Fc fusion)”, the MFI at 33.3 nM with PD-L1 (human) [1] was found to be 64800 MFI; in the assay with human CTLA-4 (human) [2], 20300 MFI; with CD28 (human) [3], 6350 MFI.
On to “variant CD80 IgV-Fc (inert) H18R/A26P/E35D/D46N/M47V/V68M/A71G/D90P (Fc fusion)”, for which the values for the MFI at 33.3 nM with PD-L1 (human) [1] and in the assay with human CTLA-4 (human) [2] were 29300 MFI and 17300 MFI, respectively.
With “variant CD80 IgV-Fc (inert) H18V/A26G/E35D/M47V/V68M/A71G/D90G (Fc fusion)”, the MFI at 33.3 nM with PD-L1 (human) [1] was 66200 MFI; with human CTLA-4 (human) [2] it was 25400 MFI; with CD28 (human) [3], 8190 MFI.
For the substance “variant CD80 IgV-Fc (inert) H18V/A26N/E35D/M47V/V68M/A71G (Fc fusion)”, the MFI at 33.3 nM in the assay with PD-L1 (human) [1] was determined as 68200 MFI; in the assay with human CTLA-4 (human) [2] it was 22400 MFI.
On the same counts, the results for “variant CD80 IgV-Fc (inert) H18V/A26P/E35D/M47V/V68L/A71G (Fc fusion)” are 55400 MFI and 13700 MFI.
As for “variant CD80 IgV-Fc (inert) H18V/A26R/E35D/M47L/V68M/A71G/D90G (Fc fusion)”, the MFI at 33.3 nM in the assay with PD-L1 (human) [1] worked out at 73200 MFI; in the assay with human CTLA-4 (human) [2] it was 23200 MFI; with CD28 (human) [3], 9620 MFI.
Take “variant CD80 IgV-Fc (inert) H18Y/A26N/E35D/M47F/V68M/A71G/D90G (Fc fusion)”: the MFI at 33.3 nM with PD-L1 (human) [1] was 26500 MFI; with CD28 (human) [3] it was 82.2 MFI.
Take “variant CD80 IgV-Fc D46V/M47L (Fc fusion)”: the MFI at 33.3 nM in the assay with human CTLA-4 (human) [4] was found to be 49700 MFI; with PD-L1 (human) [5] it was 3900 MFI.
The corresponding values for “variant CD80 IgV-Fc D46V/M47L/V68M/L85Q (Fc fusion)” are 32500 MFI and 29700 MFI.
On the same counts, the results for “variant CD80 IgV-Fc D46V/V68M/L85Q (Fc fusion)” are 7570 MFI and 4170 MFI.
Regarding variant CD80 IgV-Fc E35D (Fc fusion), the figures for the MFI at 33.3 nM with human CTLA-4 (human) [4], with CD28 (human) [6] and in the assay with PD-L1 (human) [5] were 42900 MFI, 134 MFI and 2580 MFI, respectively.
As to “variant CD80 IgV-Fc E35D/D46V (Fc fusion)”, the MFI at 33.3 nM in the assay with human CTLA-4 (human) [4] is 50100 MFI; with PD-L1 (human) [5] it was 3970 MFI.
“variant CD80 IgV-Fc E35D/D46V/M47L/V68M (Fc fusion)”: the figures for the MFI at 33.3 nM with human CTLA-4 (human) [4] and with PD-L1 (human) [5] were 34300 MFI and 29300 MFI, respectively.
On to “variant CD80 IgV-Fc E35D/D46V/M47V/V68M/K89N (Fc fusion)”, for which the MFI at 33.3 nM with CD28 (human) [6] was 2120 MFI; with PD-L1 (human) [5] it was 21600 MFI.
Turning to “variant CD80 IgV-Fc E35D/D46V/V68M/L85Q (Fc fusion)”, the MFI at 33.3 nM with human CTLA-4 (human) [4] is 32200 MFI; with PD-L1 (human) [5] it was 23600 MFI.
Consider “variant CD80 IgV-Fc E35D/M47L/V68M/L85Q (Fc fusion)”, for which the MFI at 33.3 nM was 28100 MFI in the assay with human CTLA-4 (human) [4], 159 MFI with CD28 (human) [6] and 15300 MFI with PD-L1 (human) [5].
On to “variant CD80 IgV-Fc E35D/M47V/V68M (Fc fusion)”, for which, in the assay with PD-L1 (human) [5], the MFI at 33.3 nM turned out to be 16600 MFI.
Consider “variant CD80 IgV-Fc E35D/N48K/V68M/K89N (Fc fusion)”, for which the figures for the MFI at 33.3 nM in the assay with CD28 (human) [6] and with PD-L1 (human) [5] were 1530 MFI and 17400 MFI, respectively.
The substance “variant CD80 IgV-Fc E35D/V68M/K89N (Fc fusion)” showed an MFI at 33.3 nM in the assay with human CTLA-4 (human) [4] of 24800 MFI.
“variant CD80 IgV-Fc M47V/N48K/V68M/K89N (Fc fusion)” returned an MFI at 33.3 nM in the assay with PD-L1 (human) [5] of 23700 MFI.
“variant CD80 IgV-Fc N48K/K89N (Fc fusion)”: the MFI at 33.3 nM in the assay with human CTLA-4 (human) [4] was 4370 MFI; with CD28 (human) [6], 170 MFI.
As to “variant CD80 IgV-Fc N48K/V68M/K89N (Fc fusion)”, the MFI at 33.3 nM with human CTLA-4 (human) [4] turned out to be 19100 MFI; with PD-L1 (human) [5] it was 11500 MFI.
On the same counts, the results for “variant CD80 IgV-Fc V68M/K89N (Fc fusion)” are 2330 MFI and 538 MFI.
For the substance “wild-type CD80 ECD-Fc (inert), as in Example 12 (Fc fusion)”, the MFI at 33.3 nM with PD-L1 (human) [1] was 161 MFI; with CD28 (human) [3], 57.8 MFI.
Turning to “wild-type CD80 IgV (SEQ ID NO: 150)-Fc (inert) with GSG4S linker (Fc fusion)”, the MFI at 33.3 nM with PD-L1 (human) [1] turned out to be 47 MFI.
“wild-type CD80 IgV-Fc (inert), as in Example 12 (Fc fusion)”: the MFI at 33.3 nM with PD-L1 (human) [1] came to 165 MFI; with human CTLA-4 (human) [2], 1380 MFI; in the assay with CD28 (human) [3], 102 MFI.
